Experimental data reported in US20190106502A1.

target: CD20 (B-lymphocyte antigen CD20) (human) (UniProt P11836); assay: cell-based or functional assay
Sequence (P11836 whole entry): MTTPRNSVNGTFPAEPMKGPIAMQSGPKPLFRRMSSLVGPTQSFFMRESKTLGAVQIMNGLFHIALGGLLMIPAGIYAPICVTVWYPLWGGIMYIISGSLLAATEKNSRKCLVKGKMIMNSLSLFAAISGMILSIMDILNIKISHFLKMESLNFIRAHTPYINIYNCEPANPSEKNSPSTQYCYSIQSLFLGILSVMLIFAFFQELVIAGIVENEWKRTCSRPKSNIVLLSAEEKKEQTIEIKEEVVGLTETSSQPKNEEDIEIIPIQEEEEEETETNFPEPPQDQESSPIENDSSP

Going from “GA101-P151F hin del (on GA101 P329G L234A L235A backbone) (antibody)” to “GA101-P151F P329G L234A L235A (antibody)”, the EC50 (ng/ml) values of direct cell death induction using Z-138 (% total AnnV positive cells) rises from 68.4 ng/mL to 133 ng/mL (1.9-fold).

“GA101-hinge del P329G L234A L235A (antibody)” and GA101-V11F P329G L234A L235A (antibody) are within 1.5-fold of each other in EC50 (ng/ml) values of direct cell death induction using Z-138 (% total AnnV positive cells): 155 ng/mL for the first, 131 ng/mL for the second.

Compared with “GA101-V11F P151F hinge del (on GA101 P329G L234A L235A backbone) (antibody)”, “GA101-V11F P151F (on GA101 P329G L234A L235A backbone) (antibody)” is 1.5-fold lower in EC50 (ng/ml) values of direct cell death induction using Z-138 (% total AnnV positive cells): 171 ng/mL for the first, 112 ng/mL for the second.
